From US20230235054A1 (BIOATLA, published 2023)
Where a chain is given by its changes, count along the chain named.

T1: human Nectin-4 on cells (human, UniProt Q96NY8 32-510)
T1 sequence (looked up): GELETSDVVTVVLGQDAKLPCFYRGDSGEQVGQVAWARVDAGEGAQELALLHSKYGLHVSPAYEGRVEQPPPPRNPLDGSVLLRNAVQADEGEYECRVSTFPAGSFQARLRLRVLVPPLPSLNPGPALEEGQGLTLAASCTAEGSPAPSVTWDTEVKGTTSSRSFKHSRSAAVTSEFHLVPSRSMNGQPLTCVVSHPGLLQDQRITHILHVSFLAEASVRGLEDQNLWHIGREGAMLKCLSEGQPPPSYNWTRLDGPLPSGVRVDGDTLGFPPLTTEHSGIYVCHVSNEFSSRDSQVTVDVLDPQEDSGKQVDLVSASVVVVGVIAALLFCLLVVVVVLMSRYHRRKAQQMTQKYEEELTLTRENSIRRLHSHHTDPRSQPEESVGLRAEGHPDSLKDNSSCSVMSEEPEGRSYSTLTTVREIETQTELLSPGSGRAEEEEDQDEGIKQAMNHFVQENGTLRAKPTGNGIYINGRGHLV

T2: cynoNectin4-mFc (cyno, UniProt A0A2K5WES1 32-349)
T2 construct: Immobilized on the SPR chip; also called cyanoNectin4; not shown: mFc (mouse Fc)
T2 sequence: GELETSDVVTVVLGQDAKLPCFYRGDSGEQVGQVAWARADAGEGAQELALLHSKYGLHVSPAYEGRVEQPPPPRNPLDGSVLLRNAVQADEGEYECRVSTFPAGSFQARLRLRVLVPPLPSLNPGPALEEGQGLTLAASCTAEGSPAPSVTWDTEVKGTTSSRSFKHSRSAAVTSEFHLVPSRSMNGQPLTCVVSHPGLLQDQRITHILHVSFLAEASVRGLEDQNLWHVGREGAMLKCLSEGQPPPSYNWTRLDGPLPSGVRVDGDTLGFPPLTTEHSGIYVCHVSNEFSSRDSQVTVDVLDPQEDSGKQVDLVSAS

T3: RatNectin4-His (rat, UniProt D3ZET1 31-348)
T3 construct: Immobilized on the SPR chip; not shown: His tag
T3 sequence: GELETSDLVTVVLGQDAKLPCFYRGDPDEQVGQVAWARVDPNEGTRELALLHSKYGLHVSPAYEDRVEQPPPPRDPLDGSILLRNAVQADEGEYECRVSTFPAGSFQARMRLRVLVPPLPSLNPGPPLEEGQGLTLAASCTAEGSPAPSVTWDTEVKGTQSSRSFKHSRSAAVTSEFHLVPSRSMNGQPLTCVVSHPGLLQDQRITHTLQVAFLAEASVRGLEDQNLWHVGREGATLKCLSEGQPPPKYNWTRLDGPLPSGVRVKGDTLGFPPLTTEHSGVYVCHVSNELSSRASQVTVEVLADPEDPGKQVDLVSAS

T4: huNectin4-His (human, UniProt Q96NY8 32-349)
T4 construct: Immobilized on the SPR chip; also called humanNectin4; human Nectin4; not shown: His tag
T4 sequence (looked up): T2 sequence with A39V, V230I

B1: BAP-143-00-06 (antibody, V domains shown)
VH: EVQLVESGGGLVQPGGSLRLSCAASGFTFSSYNMNWVRQAPGKGLEWVSYISSSSSTIYYADSVKGRFTISRDNAKNSLSLQMNSLRDEDTAVYYCARAYYYGDDVWGQGTTVTVSS
VL: DIQMTQSPSSVSASVGDRVTITCRASQGISGWLAWYQQKPGKAPKFLIYAASTLQSGVPSRFSGSGSGTDFTLTISSLQPEDFATYYCQQANSFPPTFGGGTKVEIK
notes: Used as a conjugate with a linker payload (CAB ADC)
B2: BAP-143-00-05 (antibody, V domains shown)
VH: B1 VH with R98E, D104M
VL: B1 VL
notes: as for B1
B3: BAP-143-00-02 (antibody, V domains shown)
VH: B1 VH with D104M
VL: B1 VL with F94E
notes: as for B1
B4: BAP-143-00-03 (antibody, V domains shown)
VH: B1 VH with D104M
VL: B1 VL with P96D
notes: as for B1
B5: BAP-143-00-04 (antibody, V domains shown)
VH: B1 VH with M34D, D104M
VL: B1 VL
notes: as for B1
B6: BAP-143-00-01 (antibody, V domains shown)
VH: B1 VH with D104M
VL: B1 VL with L33E
notes: as for B1
B7: BAP-143-wildtype (antibody, V domains shown)
VH: B1 VH with D104M
VL: B1 VL
notes: 150 kDa used in SPR; also called BAP143-00-00; benchmark (BM)
B8: BAP-143-06-24-16 (antibody, V domains shown)
VH: EVQLVQSGAEVKKPGATVKISCKVSGFTFSSYNMNWIRQSPSRGLEWLGYISSSSSTIYYADSVKGRFTISRDNSKNTLYLQMNSLRAEDTAVYYCARAYYYGDDVWGQGTLVTVSS
VL: B1 VL with R24H
notes: as for B1
B9: BAP-143-06-33-16 (antibody, V domains shown)
VH: B8 VH
VL: B1 VL with L33E
notes: as for B1
B10: BAP-143-07-03-12 (antibody, V domains shown)
VH: B1 VH with D104M, V106K
VL: B1 VL with L33E
notes: as for B1

biological target: T1, human Nectin-4 on cells; assay: cell-based or functional assay

| Binder | Ratio (pH 7.4/6.0) of cell killing EC50 |
| --- | --- |
| B1 | 1.2 |
| B2 | 2 |
| B3 | 1.7 |
| B4 | 2.6 |
| B5 | 2.7 |
| B6 | 2.1 |

biological target: T2, cynoNectin4-mFc; assay: SPR, cynoNectin4-mFc immobilized, pH 7.4
Protocol: (§1) Binding kinetics of anti-Nectin4 antibodies were measured by surface plasmon resonance using a SPR2/4 instrument (Sierra Sensors, Hamburg, Germany) and flat amine sensor chips. The SPR sensor contained four flow cells (FC1-FC4), each of which was addressed individually or in groups. huNectin4-His was immobilized in FC2, and cynoNectin4-mFc in FC4. No protein was immobilized in FC1 and FC3 which were used as control surfaces for FC2 and FC4, respectively.
(§2) All injections were done at a flow rate of 25 μL/min at 25° C. The sensor surface was activated with 1-ethyl-3-(3-dimethylaminopropyl)-carbodiimide (EDC) and N-hydroxysuccinimide (NHS) (200 mM/50 mM) for 480 seconds. HuNectin4-His (2 μg/mL in 10 mM NaAc, pH4.5) was injected for 480s and the surface was inactivated by injecting 1M ethanolamine-HCl for 480s. CynoNectin4 was immobilized using the same conditions as described for huNectin4-His, except that the cynoNectin4 was diluted into 10 mM NaAc buffer having pH 5.0. The control surface was activated and deactivated using the same conditions, but without injecting protein. PBST buffer (PBS pH 7.4 with 0.05% TWEEN20™) was used as running buffer for the surface preparation. The running solution was switched to PBST with 30 mM sodium bicarbonate with the pH adjusted as indicated in the figures before the analyte injections. The instrument was equilibrated with the running solution for one hour before the first analyte injection.
(§3) The off-rate was measured for 360s. The chip surface was regenerated after each cycle of interaction analysis by injecting 6 μL of 10 mM glycine (pH 2.0). Flow cells 1 and 3 without immobilized protein were used as control surfaces for reference subtraction.

| Kd [nM] | koff [s⁻¹] | kon [M⁻¹ s⁻¹] | Binder |
| --- | --- | --- | --- |
| 0.333 | – | – | B7 |
| 0.4 | 0.000335 | 839000 | B1 |
| 4.89 | 0.00157 | 322000 | B2 |
| 5.86 | 0.00195 | 334000 | B3 |
| 3.85 | 0.000826 | 215000 | B4 |
| 1.33 | 0.00112 | 840000 | B5 |
| 11.1 | 0.00162 | 146000 | B6 |

biological target: T2, cynoNectin4-mFc; assay: SPR, cynoNectin4-mFc immobilized, pH 6.0
Protocol: as §1, §2, §3

| Kd [nM] | koff [s⁻¹] | kon [M⁻¹ s⁻¹] | Binder |
| --- | --- | --- | --- |
| 1.06 | – | – | B7 |
| 0.56 | 0.00141 | 2.52e+06 | B1 |
| 7.02 | 0.00449 | 639000 | B2 |
| 5.46 | 0.00242 | 443000 | B3 |
| 2.33 | 0.00235 | 1.01e+06 | B4 |
| 2.08 | 0.00377 | 1.82e+06 | B5 |
| 3.04 | 0.00248 | 817000 | B6 |

biological target: T1, human Nectin-4 on cells; assay: FACS, HEK293 cells expressing human Nectin-4
Protocol: FACS analysis was carried out using HEK293 cells expressing human Nectin-4.

| Ratio (pH 7.4/6.0) of EC50 | Binder |
| --- | --- |
| 1.2 | B7 |
| 1.2 | B1 |
| 1.7 | B2 |
| 1.6 | B3 |
| 2 | B4 |
| 2.1 | B5 |
| 3.3 | B6 |

biological target: T3, RatNectin4-His; assay: SPR, RatNectin4-His immobilized, pH 6.5
Protocol: as §2, §3
In addition, data with buffer only as analyte (0 nM analyte) was subtracted from each run. Double subtracted data was fitted with the provided analysis software Analyzer R2 (Sierra Sensors) using a 1:1 binding model. A molecular weight of 150 kDa was used to calculate the molar concentrations of the analytes. RatNectin4-His was immobilized in FC3 using the same conditions as described for cynoNectin4.

| Kd [nM] | koff [s⁻¹] | kon [M⁻¹ s⁻¹] | Binder |
| --- | --- | --- | --- |
| 0.108 | – | – | B7 |
| 0.0378 | 0.000128 | 3.39e+06 | B8 |
| 0.101 | 0.000304 | 3.01e+06 | B9 |
| 1.1 | 0.000868 | 787000 | B10 |
| 1.36 | 0.000953 | 700000 | B6 |

biological target: T2, cynoNectin4-mFc; assay: SPR, cynoNectin4-mFc immobilized, pH 6.5
Protocol: as §1, §2, §3

| Kd [nM] | koff [s⁻¹] | kon [M⁻¹ s⁻¹] | Binder |
| --- | --- | --- | --- |
| 0.52 | – | – | B7 |
| 0.398 | 0.000769 | 1.93e+06 | B1 |
| 3.96 | 0.00237 | 599000 | B2 |
| 4.71 | 0.00179 | 380000 | B3 |
| 1.86 | 0.00124 | 668000 | B4 |
| 1.12 | 0.0018 | 1.6e+06 | B5 |
| 2.94 | 0.00134 | 457000 | B6 |

biological target: T4, huNectin4-His; assay: SPR, huNectin4-His immobilized, pH 6.0
Protocol: as §1, §2, §3

| Kd [nM] | koff [s⁻¹] | kon [M⁻¹ s⁻¹] | Binder |
| --- | --- | --- | --- |
| 1.49 | – | – | B7 |
| 1.61 | 0.00114 | 707000 | B1 |
| 6.37 | 0.00242 | 380000 | B2 |
| 6.02 | 0.00122 | 203000 | B4 |
| 2.58 | 0.00155 | 602000 | B5 |
| 12.3 | 0.00367 | 298000 | B6 |
